Measured values: paper PMC5591645

Biological target: phosphorylated human eIF2α (amino acids 1–185) solubility-enhanced mutant (P-eIF2α) (human) (UniProt P05198)
Test: MST

fold higher affinity than the isolated PP1^D95A	Kd	Substance
3 fold		R15B–PP1^D95A (from UniProt Q5SWA1;P62136) (complex)
5.4 fold		R15A–PP1^D95A (from UniProt O75807;P62136) (complex)
	650 nM	PP1^D95A (human PP1α amino acids 7–330, D95A) (from UniProt P62136 7-330) (enzyme)
